Test results taken from PMC9800333, “Determinants of receptor tyrosine phosphatase homophilic adhesion: Structural comparison of PTPRK and PTPRM extracellular domains” (The Journal of Biological Chemistry, 2022).
Positions count from the first letter of the chain named. Names and notes keep the numbering of the source.

Target: the molecule itself
Assay: SEC-MALS; pH 8: 100 ul at 1 mg/ml on Superdex 200 Increase 10/300 GL in 100 mM Tris-HCl, pH 8, 250 mM NaCl; protein conjugate analysis for glycans; dimer to monomers

B1: full-length PTPRK extracellular domain (domain or fragment, human, UniProt Q15262-3 28-752, looked up)
chain: QGQFSAGGCTFDDGPGACDYHQDLYDDFEWVHVSAQEPHYLPPEMPQGSYMIVDSSDHDPGEKARLQLPTMKENDTHCIDFSYLLYSQKGLNPGTLNILVRVNKGPLANPIWNVTGFTGRDWLRAELAVSTFWPNEYQVIFEAEVSGGRSGYIAIDDIQVLSYPCDKSPHFLRLGDVEVNAGQNATFQCIATGRDAVHNKLWLQRRNGEDIPVAQTKNINHRRFAASFRLQEVTKTDQDLYRCVTQSERGSGVSNFAQLIVREPPRPIAPPQLLGVGPTYLLIQLNANSIIGDGPIILKEVEYRMTSGSWTETHAVNAPTYKLWHLDPDTEYEIRVLLTRPGEGGTGLPGPPLITRTKCAEPMRTPKTLKIAEIQARRIAVDWESLGYNITRCHTFNVTICYHYFRGHNESKADCLDMDPKAPQHVVNHLPPYTNVSLKMILTNPEGRKESEETIIQTDEDVPGPVPVKSLQGTSFENKIFLNWKEPLDPNGIITQYEISYSSIRSFDPAVPVAGPPQTVSNLWNSTHHVFMHLHPGTTYQFFIRASTVKGFGPATAINVTTNISAPTLPDYEGVDASLNETATTITVLLRPAQAKGAPISAYQIVVEELHPHRTKREAGAMECYQVPVTYQNAMSGGAPYYFAAELPPGNLPEPAPFTVGDNRTYQGFWNPPLAPRKGYNIYFQAMSSVEKETKTQCVRIATKAAATEEPEVIPDPAKQTDRVV
modifications: native N-linked glycans (no deglycosylation)
notes: human PTPRK, full extracellular domain (MAM, Ig, FN1-4), residues 28-752; numbers count on: UniProt Q15262-3; Cloned into pHLSec (AgeI/KpnI) in frame with the vector's N-terminal secretion signal; The C-terminal His6 tag was included in the SAXS models; also called PTPRK-ECD; PTPRK full ECD; not shown: Lys-His6, C-terminal, kept
  stoichiometry N: 2

B2: PTPRK MAM-Ig-FN1 domains (domain or fragment, human, UniProt Q15262-3 28-385, looked up)
chain: QGQFSAGGCTFDDGPGACDYHQDLYDDFEWVHVSAQEPHYLPPEMPQGSYMIVDSSDHDPGEKARLQLPTMKENDTHCIDFSYLLYSQKGLNPGTLNILVRVNKGPLANPIWNVTGFTGRDWLRAELAVSTFWPNEYQVIFEAEVSGGRSGYIAIDDIQVLSYPCDKSPHFLRLGDVEVNAGQNATFQCIATGRDAVHNKLWLQRRNGEDIPVAQTKNINHRRFAASFRLQEVTKTDQDLYRCVTQSERGSGVSNFAQLIVREPPRPIAPPQLLGVGPTYLLIQLNANSIIGDGPIILKEVEYRMTSGSWTETHAVNAPTYKLWHLDPDTEYEIRVLLTRPGEGGTGLPGPPLITRTK
modifications: native N-linked glycans (no deglycosylation); glycans seen in the structure at N101, N140 and N211
notes: human PTPRK, N-terminal MAM, Ig and first FN domains, residues 28-385; numbers count on: UniProt Q15262-3; Cloned into pHLSec (AgeI/KpnI) in frame with the vector's N-terminal secretion signal; also called PTPRK-MIFN1; MIFN1
  stoichiometry N: 2

B3: PTPRK-MIFN1.W351G (domain or fragment, human, UniProt Q15262-3 28-385, looked up)
chain: B2 chain with W324G
notes: human PTPRK, MAM-Ig-FN1 domains, residues 28-385, with W351G; numbers count on: UniProt Q15262-3; PDB 8A1F is the wild-type parent; also called W315G mutant form of PTPRK-MIFN1; source: expressed and purified (as PTPRK-MIFN1: human embryonic kidney-293F cells, nickel-nitrilotriacetic acid agarose, SEC)
  binding result: binds
